Test results reported in article PMC6375223.

Target: SKP2 (UniProt Q13309)
Assay: co-immunoprecipitation from transfected 293T cells
Conditions: reference: wild-type PDCD4; sites S67

binding against the reference: lost
Substance: PDCD4 (from UniProt Q53EL6) PDCD4 S67A
